Results from patent US20230341395A1 (GEMINA LABORATORIES, published 2023).

Experiments:
[1] = target: T1, Recombinant SARS-CoV-2 Spike protein antigen (Z03501, Genscript) (SARS-CoV-2, UniProt P0DTC2 16-685); experiment: dot blot dipstick, gold nanoparticles with fusion protein and no antibody
T1 construct: also called S antigen; S protein antigen

[2] = target: T2, Recombinant SARS-CoV-2 Nucleocapsid protein antigen (Z03488, Genscript) (SARS-CoV-2, UniProt P0DTC9 1-419); experiment: as above
T2 construct: also called N protein antigen; Nucleocapsid antigen

[3] = target: Monoclonal antibody against the SARS-CoV-2 Nucleocapsid protein (A02039, Genscript)
[4] = target: Monoclonal antibody against the SARS-CoV-2 Spike protein (A02038, Genscript)

B1: Gold-binding fusion protein EMT-003 (Protein G' - linker - gold binding protein) (other)
chain: MTYKLILNGKTLKGETTTEAVDAATAEKVFKQYANDNGVDGEWTYDDATKTFTVTEKPEVIDASELTPAVTTYKLVINGKTLKGETTTEAVDAATAEKVFKQYANDNGVDGEWTYDDATKTFTVTEKPEVIDASELTPAVTTYKLVINGKTLKGETTTKAVDAETAEKAFKQYANDNGVDGVWTYDDATKTFTVTEGGGGSGGGGSGGGGSASGGGMHGKTQATSGTIQSMHGKTQATSGTIQSMHGKTQATSGTIQSMHGKTQATSGTIQSMHGKTQATSGTIQSMHGKTQATSGTIQSMHGKTQATSGTIQS
notes: also called EMT-03; gold fusion protein
binding result [1]: no binding (tested: 0.5 µg antigen spotted) | binding result [2]: no binding (tested: 0.5 µg antigen spotted) | Kd [3]: 0.258 nM | koff [3]: 0.000149 s⁻¹ | kon [3]: 577000 M⁻¹ s⁻¹ | Kd [4]: 0.192 nM | koff [4]: 0.000103 s⁻¹ | kon [4]: 537000 M⁻¹ s⁻¹
